Source: the RNAGym collection of RNA variant scans (doi:10.7554/elife.90254)

B1: LINE1-mini (parent)
chain: GGCAGAGCUCAACACAGCGUGGCAAAGUGGCUGUGGCUAGACUGCC

Variants of: B1
Assay: self-cleavage, relative activity (ratio to wild type); higher = more cleavage; in vitro, sequencing; the parent is a self-cleaving ribozyme

Compared with A16G A39U, A16G A39G is lower in self-cleavage: 0.14 for the first, 0.07 for the second.

Going from A16G A24G to A16G A24U, the self-cleavage rises from 0.16 to 0.62.

First: A16G A24C
Second: A16U G21A
The self-cleavage of the first is lower: 0.13 for the first, 0.23 for the second.

Going from A16U G21C to A16U G21U, the self-cleavage falls from 0.27 to 0.19.

Compared with A16C C42G, A16C C42A is lower in self-cleavage: 0.09 for the first, 0.05 for the second.

Compared with A16C C42U, A16G C31G is lower in self-cleavage: 0.06 for the first, 0.02 for the second.

A16G C31A and A16G C31U are the same in self-cleavage: 0.03 for the first, 0.03 for the second.

Compared with A16U C46A, A16U C46U is higher in self-cleavage: 0.09 for the first, 0.1 for the second.

A16U C46G and C15U U32C are the same in self-cleavage: 0.08 for the first, 0.08 for the second.

Going from C15U U32A to C15U U32G, the self-cleavage rises from 0.09 to 0.12.

Going from A16C G27C to A16C G27U, the self-cleavage falls from 0.15 to 0.14.

Compared with A16C G27A, A16U U38G is lower in self-cleavage: 0.26 for the first, 0.02 for the second.

Compared with A16U U38C, A16U U38A is higher in self-cleavage: 0.04 for the first, 0.1 for the second.

C15U U43A and C15U U43C are the same in self-cleavage: 0.14 for the first, 0.14 for the second.

Compared with C15U U43G, A16U G19U is lower in self-cleavage: 0.44 for the first, 0.2 for the second.

First: A16U G19A
Second: A16U G19C
The self-cleavage of the first is lower: 0.19 for the first, 0.6 for the second.

First: A16G A26U
Second: A16G A26G
The self-cleavage of the first is higher: 0.52 for the first, 0.37 for the second.

Going from A16G A26C to A16G C45U, the self-cleavage falls from 0.84 to 0.45.

Compared with A16G C45A, A16G C45G is lower in self-cleavage: 0.14 for the first, 0.11 for the second.

Going from A16C C46G to A16C C46A, the self-cleavage rises from 0.09 to 0.1.

Going from A16C C46U to G17A, the self-cleavage rises from 0.08 to 0.19.

Going from A16G U32A to A16G U32C, the self-cleavage rises from 0.07 to 0.26.

Going from A16G U32G to A16C G21C, the self-cleavage rises from 0.11 to 0.22.

First: A16C G21A
Second: A16C G21U
The self-cleavage of the first is higher: 0.14 for the first, 0.07 for the second.

First: A16C C31A
Second: A16C C31U
The self-cleavage of the first is higher: 0.08 for the first, 0.03 for the second.

Going from A16C C31G to A16U C42U, the self-cleavage rises from 0.03 to 0.09.

Compared with A16U C42G, A16U C42A is lower in self-cleavage: 0.07 for the first, 0.05 for the second.

Compared with A16G G29A, A16G G29C is lower in self-cleavage: 1.23 for the first, 0.4 for the second.

Compared with A16G G29U, A16G U28C is lower in self-cleavage: 0.77 for the first, 0.44 for the second.

Compared with A16G U28A, A16G U28G is lower in self-cleavage: 0.53 for the first, 0.36 for the second.

First: C15U G40U
Second: C15U G40A
The self-cleavage of the first is lower: 0.12 for the first, 0.14 for the second.

Compared with C15U G40C, G17A C18G is higher in self-cleavage: 0.07 for the first, 0.32 for the second.

Compared with G17A C18A, G17A C18U is higher in self-cleavage: 0.09 for the first, 0.14 for the second.

Going from A16C U34A to A16C U34C, the self-cleavage rises from 0.04 to 0.07.

First: A16C U34G
Second: C15U G29U
The self-cleavage of the first is lower: 0.05 for the first, 1.42 for the second.

First: A16C G36C
Second: A16C G36A
The self-cleavage of the first is lower: 0.04 for the first, 0.12 for the second.

A16C G36U and A16U G40U are the same in self-cleavage: 0.07 for the first, 0.07 for the second.

First: A16U G40A
Second: A16U G40C
The self-cleavage of the first is lower: 0.04 for the first, 0.05 for the second.

Going from A16C G17A to A16C G17U, the self-cleavage rises from 0.07 to 0.08.

Compared with A16C G17C, A16G G40A is lower in self-cleavage: 0.12 for the first, 0.05 for the second.

Compared with A16G G40U, A16G G40C is higher in self-cleavage: 0.05 for the first, 0.07 for the second.

Going from A16G C18A to A16G C18G, the self-cleavage falls from 0.16 to 0.04.

Going from A16G C18U to C15U U38G, the self-cleavage falls from 0.33 to 0.04.

First: C15U U38A
Second: C15U U38C
The self-cleavage of the first is higher: 0.64 for the first, 0.27 for the second.

Going from A16C C37A to A16C C37U, the self-cleavage rises from 0.06 to 0.1.

First: A16C C37G
Second: A16G G19C
The self-cleavage of the first is lower: 0.02 for the first, 0.5 for the second.

Compared with A16G G19A, A16G G19U is lower in self-cleavage: 1.31 for the first, 0.47 for the second.

First: A16U G27U
Second: A16U G27C
The self-cleavage of the first is lower: 0.13 for the first, 0.16 for the second.

Compared with A16U G27A, A16U is lower in self-cleavage: 0.59 for the first, 0.15 for the second.

Going from A16C to A16G, the self-cleavage rises from 0.11 to 0.61.

Compared with A16G G36C, A16G G36A is higher in self-cleavage: 0.05 for the first, 0.53 for the second.

A16G G36U and A16G U43C are the same in self-cleavage: 0.04 for the first, 0.04 for the second.

First: A16G U43A
Second: A16G U43G
The self-cleavage of the first is lower: 0.02 for the first, 0.08 for the second.

A16G U34G and A16G U34C are the same in self-cleavage: 0.08 for the first, 0.08 for the second.

Compared with A16G U34A, A16G C46G is higher in self-cleavage: 0.02 for the first, 0.68 for the second.

Going from A16G C46A to A16G C46U, the self-cleavage falls from 0.64 to 0.55.

Compared with C15U G33U, C15U G33C is lower in self-cleavage: 0.37 for the first, 0.09 for the second.

Compared with A16U G33A, A16U G33U is higher in self-cleavage: 0.07 for the first, 0.14 for the second.

First: A16U G33C
Second: A16C U43C
The self-cleavage of the first is lower: 0.07 for the first, 0.08 for the second.

Compared with A16C U43A, A16C C18U is higher in self-cleavage: 0.04 for the first, 0.09 for the second.

Going from A16C C18A to A16C C18G, the self-cleavage falls from 0.06 to 0.04.

First: A16G G27A
Second: A16G G27C
The self-cleavage of the first is higher: 0.78 for the first, 0.17 for the second.

First: A16G G27U
Second: C15U G36A
The self-cleavage of the first is higher: 0.68 for the first, 0.15 for the second.

Going from C15U G36U to C15U G36C, the self-cleavage falls from 0.12 to 0.06.

Compared with C15U G30A, C15U G30C is lower in self-cleavage: 0.35 for the first, 0.09 for the second.

First: C15U G30U
Second: A16U G35A
The self-cleavage of the first is higher: 0.6 for the first, 0.01 for the second.

First: A16U G35C
Second: A16U G35U
The self-cleavage of the first is higher: 0.07 for the first, 0.04 for the second.

Going from A16C G22C to A16C G22A, the self-cleavage rises from 0.09 to 0.1.

Compared with A16C G22U, G17A C31G is lower in self-cleavage: 0.1 for the first, 0.08 for the second.

Going from G17A C31U to G17A C31A, the self-cleavage falls from 0.35 to 0.13.

Going from A16G G22U to A16G G22C, the self-cleavage falls from 0.63 to 0.1.

Compared with A16G G22A, A16C A41U is lower in self-cleavage: 0.71 for the first, 0.05 for the second.

First: A16C A41C
Second: A16C A41G
The self-cleavage of the first is higher: 0.03 for the first, 0.02 for the second.

Going from A16U G30A to A16U G30U, the self-cleavage falls from 0.1 to 0.06.

First: A16U G30C
Second: G17A A25G
The self-cleavage of the first is higher: 0.45 for the first, 0.07 for the second.

Going from G17A A25C to G17A A25U, the self-cleavage rises from 0.07 to 0.24.

A16C G33C and A16C G33U are the same in self-cleavage: 0.05 for the first, 0.05 for the second.

First: A16C G33A
Second: A16G G21A
The self-cleavage of the first is lower: 0.07 for the first, 0.7 for the second.

First: A16G G21C
Second: A16G G21U
The self-cleavage of the first is lower: 0.34 for the first, 0.48 for the second.

Going from A16C A39G to A16C A39C, the self-cleavage falls from 0.04 to 0.02.

Compared with A16C A39U, A16C G30C is higher in self-cleavage: 0.09 for the first, 0.12 for the second.

Compared with A16C G30A, A16C G30U is lower in self-cleavage: 0.14 for the first, 0.05 for the second.

A16C G35C and A16C G35A are the same in self-cleavage: 0.06 for the first, 0.06 for the second.

Work on A16C G35U yielded a self-cleavage of 0.03.
